# Experimental data from paper PMC2756588.
# Tests used:
# Assay in all cases: SPOT array
# [1] = target: T1, Myo5, Q04439; conditions: median of control spots 471
# T1 sequence (Q04439 1072-1160, looked up): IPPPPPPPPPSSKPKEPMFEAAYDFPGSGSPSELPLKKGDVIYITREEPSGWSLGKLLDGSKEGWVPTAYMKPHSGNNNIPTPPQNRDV
# [2] = target: T2, Hof1, Q05080; conditions: median of control spots 4086
# T2 sequence (Q05080 590-669, looked up): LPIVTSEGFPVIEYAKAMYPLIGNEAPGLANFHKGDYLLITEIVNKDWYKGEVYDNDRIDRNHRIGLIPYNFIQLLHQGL
# [3] = target: T3, Abp1, P15891; conditions: median of control spots 935
# T3 sequence (P15891 535-592, looked up): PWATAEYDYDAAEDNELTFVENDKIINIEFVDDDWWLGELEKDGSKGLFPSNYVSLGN
# [4] = target: T4, Boi2, P39969; conditions: median of control spots 1161
# T4 sequence (P39969 32-116, looked up): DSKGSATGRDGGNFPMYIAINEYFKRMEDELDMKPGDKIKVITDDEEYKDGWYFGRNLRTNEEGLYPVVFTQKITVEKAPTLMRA
# [5] = target: Bem1-2, P29366; conditions: median of control spots 4347
# Bem1-2, P29366, sequence (P29366 139-227): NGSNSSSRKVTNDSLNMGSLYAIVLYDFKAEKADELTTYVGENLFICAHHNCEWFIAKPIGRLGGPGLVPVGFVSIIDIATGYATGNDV
# [6] = target: T5, Cyk3, Q07533; conditions: median of control spots 1451
# T5 sequence (Q07533 1-83, looked up): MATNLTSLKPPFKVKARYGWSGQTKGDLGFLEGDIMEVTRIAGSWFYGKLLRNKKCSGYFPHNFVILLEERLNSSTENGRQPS
# [7] = target: T6, Sla1-2, P32790; conditions: median of control spots 712
# T6 sequence (P32790 60-140, looked up): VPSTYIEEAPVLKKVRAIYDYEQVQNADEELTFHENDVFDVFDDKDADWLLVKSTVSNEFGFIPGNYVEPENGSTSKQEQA
# [8] = target: T7, Lsb1, P53281; conditions: median of control spots 388
# T7 sequence (P53281 45-122, looked up): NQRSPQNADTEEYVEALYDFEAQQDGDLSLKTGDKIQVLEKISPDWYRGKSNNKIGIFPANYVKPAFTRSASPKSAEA
# [9] = target: Myo3, P36006; conditions: median of control spots 468
# [10] = target: Bem1-1, P29366; conditions: median of control spots 4282
# Bem1-1, P29366, sequence (P29366 55-141): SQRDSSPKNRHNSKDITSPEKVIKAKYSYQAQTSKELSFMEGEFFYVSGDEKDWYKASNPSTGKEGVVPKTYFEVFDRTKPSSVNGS
# [11] = target: T8, Sla1-3, P32790; conditions: median of control spots 5475
# T8 sequence (P32790 344-424, looked up): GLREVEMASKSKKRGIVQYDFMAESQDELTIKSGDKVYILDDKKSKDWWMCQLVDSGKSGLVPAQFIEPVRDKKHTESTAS
# [12] = target: T9, Nbp2, Q12163; conditions: median of control spots 357
# T9 sequence (Q12163 103-180, looked up): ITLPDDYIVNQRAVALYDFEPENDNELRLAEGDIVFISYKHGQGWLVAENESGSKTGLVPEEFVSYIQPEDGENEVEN
# [13] = target: T10, Bud14, P27637; conditions: median of control spots 956
# T10 sequence (P27637 247-328, looked up): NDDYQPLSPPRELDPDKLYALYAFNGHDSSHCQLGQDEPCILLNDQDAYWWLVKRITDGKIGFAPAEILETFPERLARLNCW
# [14] = target: T11, Boi1, P38041; conditions: median of control spots 1162
# T11 sequence (P38041 1-86, looked up): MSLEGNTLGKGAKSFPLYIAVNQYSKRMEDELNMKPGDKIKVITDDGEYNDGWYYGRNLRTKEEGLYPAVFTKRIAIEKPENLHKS
# [15] = target: T12, Hse1, P38753; conditions: median of control spots 1727
# T12 sequence (P38753 208-285, looked up): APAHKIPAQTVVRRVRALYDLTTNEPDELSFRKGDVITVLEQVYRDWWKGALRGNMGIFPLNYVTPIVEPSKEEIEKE
# [16] = target: T13, Pin3, Q06449; conditions: median of control spots 2171
# T13 sequence (Q06449 53-122, looked up): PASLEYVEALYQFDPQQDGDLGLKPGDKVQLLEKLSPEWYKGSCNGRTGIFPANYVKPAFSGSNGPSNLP
# [17] = target: T14, Lsb3, P43603; conditions: median of control spots 406
# T14 sequence (P43603 385-451, looked up): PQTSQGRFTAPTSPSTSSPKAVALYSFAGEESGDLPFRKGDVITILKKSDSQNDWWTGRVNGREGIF
# [18] = target: Sho1, P40073; conditions: median of control spots 1148
# Sho1, P40073, sequence (P40073 287-367): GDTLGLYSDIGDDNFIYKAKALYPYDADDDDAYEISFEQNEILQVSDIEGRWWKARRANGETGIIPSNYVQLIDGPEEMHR
# [19] = target: T15, Fus1, P11710; conditions: median of control spots 1200
# T15 sequence (P11710 432-512, looked up): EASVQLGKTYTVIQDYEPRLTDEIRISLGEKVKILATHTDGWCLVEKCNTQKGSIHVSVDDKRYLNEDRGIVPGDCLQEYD
# [20] = target: GST; conditions: median of control spots 978
# [21] = target: Rvs167, P39743; conditions: median of control spots 2707
# Rvs167, P39743, sequence (P39743 419-482): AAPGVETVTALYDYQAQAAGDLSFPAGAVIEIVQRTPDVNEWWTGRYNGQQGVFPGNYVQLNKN
# [22] = target: T16, Cdc25, P04821; conditions: median of control spots 969
# T16 sequence (P04821 50-136, looked up): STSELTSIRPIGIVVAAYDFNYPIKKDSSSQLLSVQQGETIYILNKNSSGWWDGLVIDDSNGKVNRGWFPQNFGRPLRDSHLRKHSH
# [23] = target: T17, Bbc1, P47068; conditions: median of control spots 796
# T17 sequence (P47068 1-78, looked up): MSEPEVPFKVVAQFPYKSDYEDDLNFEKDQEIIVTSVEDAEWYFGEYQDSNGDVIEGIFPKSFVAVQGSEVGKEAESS
# [24] = target: T18, Pex13, P80667; conditions: median of control spots 1341
# T18 sequence (P80667 295-386, looked up): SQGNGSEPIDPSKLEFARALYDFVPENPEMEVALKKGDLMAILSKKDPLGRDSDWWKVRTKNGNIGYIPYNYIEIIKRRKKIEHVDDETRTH
# [25] = target: T19, Bzz1-2, P38822; conditions: median of control spots 4538
# T19 sequence (P38822 568-633, looked up): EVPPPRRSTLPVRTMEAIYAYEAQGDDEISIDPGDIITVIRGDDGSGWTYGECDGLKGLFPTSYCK
# [26] = target: T20, Bzz1-1, P38822; conditions: median of control spots 4446
# T20 sequence (P38822 478-572, looked up): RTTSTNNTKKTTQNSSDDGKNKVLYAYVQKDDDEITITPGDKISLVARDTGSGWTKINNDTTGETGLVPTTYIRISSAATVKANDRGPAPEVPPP
# [27] = target: T21, Lsb4, P32793; conditions: median of control spots 397
# T21 sequence (P32793 402-468, looked up): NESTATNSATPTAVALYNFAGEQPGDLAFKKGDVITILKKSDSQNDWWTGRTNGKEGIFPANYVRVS
Binder,SPOT intensity [1],SPOT intensity [2],SPOT intensity [3],SPOT intensity [4],SPOT intensity [5],SPOT intensity [6],SPOT intensity [7],SPOT intensity [8],SPOT intensity [9],SPOT intensity [10],SPOT intensity [11],SPOT intensity [12],SPOT intensity [13],SPOT intensity [14],SPOT intensity [15],SPOT intensity [16],SPOT intensity [17],SPOT intensity [18],SPOT intensity [19],SPOT intensity [20],other results
RKQRSIPLSPIVPES,2,0,48,1,0,0,0,2,4,0,17,0,1,1,0,7,6,49,17,1,SPOT intensity [21]: 0; SPOT intensity [22]: 1; SPOT intensity [23]: 1; SPOT intensity [24]: 2; SPOT intensity [25]: 5; SPOT intensity [26]: 0; SPOT intensity [27]: 9
KRRTSLFPWLHKPGI,0,5,25,0,0,0,0,0,0,0,20,57,3,3,19,0,0,61,31,0,SPOT intensity [21]: 0; SPOT intensity [22]: 18; SPOT intensity [23]: 39; SPOT intensity [24]: 4; SPOT intensity [25]: 3; SPOT intensity [26]: 0; SPOT intensity [27]: 0
GKLKHIPRRPYEIER,0,1,4,0,0,0,0,5,0,0,16,0,0,0,1,4,0,9,0,1,SPOT intensity [21]: 1; SPOT intensity [22]: 0; SPOT intensity [23]: 13; SPOT intensity [24]: 2; SPOT intensity [25]: 2; SPOT intensity [26]: 0; SPOT intensity [27]: 0
KLSRGRYGLPLSSRP,0,8,26,1,0,0,1,175,1,1,31,2,4,4,10,7,4,31,3,0,SPOT intensity [21]: 3; SPOT intensity [22]: 12; SPOT intensity [23]: 9; SPOT intensity [24]: 3; SPOT intensity [25]: 7; SPOT intensity [26]: 0; SPOT intensity [27]: 0
